# According to article PMC10598214, “SaLT&PepPr is an interface-predicting language model for designing peptide-guided protein degraders” (Communications Biology, 2023):
# T1: β-catenin (UniProt P35222 1-781)
# T1 sequence (looked up): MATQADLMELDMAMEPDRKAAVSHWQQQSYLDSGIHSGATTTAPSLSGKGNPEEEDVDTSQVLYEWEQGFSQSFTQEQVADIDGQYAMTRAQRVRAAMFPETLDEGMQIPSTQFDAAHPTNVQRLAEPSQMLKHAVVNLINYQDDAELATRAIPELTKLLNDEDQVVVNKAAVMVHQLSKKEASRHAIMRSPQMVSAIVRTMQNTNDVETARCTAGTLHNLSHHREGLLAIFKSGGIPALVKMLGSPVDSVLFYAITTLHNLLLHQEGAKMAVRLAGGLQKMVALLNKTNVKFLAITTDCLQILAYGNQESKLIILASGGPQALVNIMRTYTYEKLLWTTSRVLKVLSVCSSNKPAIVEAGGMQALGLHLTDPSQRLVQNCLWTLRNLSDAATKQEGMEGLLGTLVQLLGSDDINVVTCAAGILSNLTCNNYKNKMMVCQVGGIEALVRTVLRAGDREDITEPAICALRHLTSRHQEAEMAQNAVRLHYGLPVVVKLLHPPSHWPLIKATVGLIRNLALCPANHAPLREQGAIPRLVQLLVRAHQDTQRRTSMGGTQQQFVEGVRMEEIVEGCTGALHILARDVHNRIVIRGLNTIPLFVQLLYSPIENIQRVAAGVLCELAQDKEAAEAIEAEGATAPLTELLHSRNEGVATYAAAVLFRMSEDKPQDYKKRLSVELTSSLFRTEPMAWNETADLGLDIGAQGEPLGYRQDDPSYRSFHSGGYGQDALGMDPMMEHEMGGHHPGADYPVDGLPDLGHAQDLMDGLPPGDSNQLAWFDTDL
# Molecular target: T1, β-catenin
# Assay: cell-based or functional assay
binder,measurement,value
"SnP_8 uAb (designed binder, biotinylated with EZ-Link NHS-Biotin) PTAPPYDSLLVFDYEGGSGSGRLNFGDDIPSALRIAKKKRWNSIEERRIHQESELHSYLSRLIAAERERELEECQRNHEGDEDDSHVRAQQACIEAKHDKYMADMDELFSQVDEKRKKRDIPDYLCGKISFELMREPCITPSGITYDRKDIEEHLQRVGHFDPVTRSPLTQEQLIPNLAMKEVIDAFISENGWVEDY","degradation of endogenous cytosolic β-catenin in transfected DLD1 cells (immunoblot densitometry, relative to non-transfected control)",> 60%
